Source: US6828121

Biological target: humanized anti-CD18 kappa light chain

B1: Prc protease (periplasmic C-terminal processing protein) (protein)
chain: VEDITRADQIPVLKEETQHATVSERVTSRFTRSHYRQFDLDQAFSAKIFDRYLNLLDYSHNVLLASDVEQFAKKKTELGDELRSGKLDVFYDLYNLAQKRRFERYQYALSVLEKPMDFTGNDTYNLDRSKAPWPKNEAELNALWDSKVKFDELSLKLTGKTDKEIRETLTRRYKFAIRRLAQTNSEDVFSLAMTAFAREIDPHTNYLSPRNTEQFNTEMSLSLEGIGAVLQMDDDYTVINSMVAGGPAAKSKAISVGDKIVGVGQTGKPMVDVIGWRLDDVVALIKGPKGSKVRLEILPAGKGTKTRTVTLTRERIRLEDRAVKMSVKTVGKEKVGVLDIPGFYVGLTDDVKVQLQKLEKQNVSSVIIDLRSNGGGALTEAVSLSGLFIPAGPIVQVRDNNGKVREDSDTDGQVFYKGPLVVLVDRFSASASEIFAAAMQDYGRALVVGEPTFGKGTVQQYRSLNRIYDQMLRPEWPALGSVQYTIQKFYRVNGGSTQRKGVTPDIIMPTGNEETETGEKFEDNALPWDSIDAATYVKSGDLTAFEPELLKEHNARIAKDPEFQNIMKDIARFNAMKDKRNIVSLNYAVREKENNEDDATRLARLNERFKREGKPELKKLDDLPKDYQEPDPYLDETVNIALDLAKLEKARPAEQPAPVK
kappa LC cleavage (LC clips on 1-D/2-D gels and peak 1 of the AME5/RP assay in prc-plus against prc-deletion strains): Here it is shown that Prc is the only protease involved in kappa LC cleavage inside E. coli cells.
